Like-named read-outs stand apart in the source and are kept apart here.
What was measured:
[1] = target: penta-His-tagged PfAlba3 (Plasmodium falciparum (3D7)); assay: AUC
PfAlba4 [2] = target: T1, PfAlba4 (Plasmodium falciparum 3D7, UniProt A0A5K1K8Y8 1-372); assay: EMSA
T1 sequence: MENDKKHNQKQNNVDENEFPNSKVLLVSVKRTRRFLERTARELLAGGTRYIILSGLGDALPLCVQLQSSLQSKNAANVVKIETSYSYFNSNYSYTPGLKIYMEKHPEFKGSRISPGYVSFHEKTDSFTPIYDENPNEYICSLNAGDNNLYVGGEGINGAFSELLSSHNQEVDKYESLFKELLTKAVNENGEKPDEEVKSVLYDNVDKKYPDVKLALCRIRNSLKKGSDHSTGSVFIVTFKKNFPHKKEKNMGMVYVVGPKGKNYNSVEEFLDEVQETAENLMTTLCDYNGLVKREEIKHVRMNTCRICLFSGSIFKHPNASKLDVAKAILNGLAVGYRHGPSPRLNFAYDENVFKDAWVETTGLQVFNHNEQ

PfAlba2 [3] = target: T2, PfAlba2 (Plasmodium falciparum 3D7, UniProt Q8IDN4 1-211); assay: EMSA
T2 sequence: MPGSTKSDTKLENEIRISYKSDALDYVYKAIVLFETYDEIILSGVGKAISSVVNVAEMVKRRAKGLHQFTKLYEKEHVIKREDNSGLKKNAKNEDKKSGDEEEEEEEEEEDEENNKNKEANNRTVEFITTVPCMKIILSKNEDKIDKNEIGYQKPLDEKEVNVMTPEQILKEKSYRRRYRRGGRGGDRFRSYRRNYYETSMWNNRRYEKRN

PfAlba4 [4] = target: T1, PfAlba4; assay: competition
PfAlba4 [5] = target: T1, PfAlba4; assay: competition; remark: listed apart in the source
PfAlba3 [6] = target: T3, PfAlba3 (Plasmodium falciparum 3D7, UniProt Q8IJX8 1-107); assay: EMSA
T3 sequence: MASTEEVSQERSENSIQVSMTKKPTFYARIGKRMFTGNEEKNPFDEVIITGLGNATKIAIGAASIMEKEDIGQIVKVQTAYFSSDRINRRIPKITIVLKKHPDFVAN

PfAlba2 [7] = target: T2, PfAlba2; assay: EMSA; remark: listed apart in the source
PfAlba4 [8] = target: T1, PfAlba4; assay: EMSA; remark: listed apart in the source
PfAlba2 [9] = target: T2, PfAlba2; assay: EMSA; remark: listed apart in the source
PfAlba3 [10] = target: T3, PfAlba3; assay: EMSA; remark: listed apart in the source
PfAlba1 = target: T4, PfAlba1 (Plasmodium falciparum 3D7, UniProt Q8IAX8 1-248); assay: EMSA
T4 sequence: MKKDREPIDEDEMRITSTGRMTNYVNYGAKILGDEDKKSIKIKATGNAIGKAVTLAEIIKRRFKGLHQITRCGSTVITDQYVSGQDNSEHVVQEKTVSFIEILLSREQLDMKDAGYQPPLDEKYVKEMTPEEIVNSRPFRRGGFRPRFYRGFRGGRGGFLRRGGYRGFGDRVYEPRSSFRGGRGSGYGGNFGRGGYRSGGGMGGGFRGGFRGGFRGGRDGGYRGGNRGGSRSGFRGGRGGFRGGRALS

PfAlba4 [11] = target: T1, PfAlba4; assay: competition; remark: listed apart in the source

## penta-His-tagged PfAlba3 (natural protein)
[1]
  stoichiometry N: 2

## UUUUUUUUUUUUUUUUUUUUUU (ssRNA) [polyU 22-mer]
PfAlba4 [2]
  binding result: binds
PfAlba2 [3]
  binding result: binds

B1: HSP70 (dsDNA)
DNA 1: GCTAGTGCAAAAGGTTCAAAACCAAATTTACCAGAATCCAAT
DNA 2: ATTGGATTCTGGTAAATTTGGTTTTGAACCTTTTGCACTAGC
PfAlba4 [4]
  binding result: binds

B2: Actin-II (dsDNA)
DNA 1: TCTGAAGAAGCTGTTGCTTTAGTAGTTGATAATGGAAGTGGT
DNA 2: ACCACTTCCATTATCAACTACTAAAGCAACAGCTTCTTCAGA
PfAlba4 [4]
  binding result: binds

## AAAAAAAAAAAAAAAAAAAAAA (ssRNA) [polyA 22-mer, unlabeled]
PfAlba4 [5]
  binding result: binds

B3: Scr F1 (dsDNA)
DNA 1: GTACTTACTCTAATCTAGTCGTAGTATGTATGCCTCAATGAA
DNA 2: TTCATTGAGGCATACATACTACGACTAGATTAGAGTAAGTAC
PfAlba4 [4]
  binding result: binds

B4: TARE6 (79 bp) (dsDNA)
DNA 1: CCCAAGCTTACTTATATTAGGACCTATATTAGTTATCTGAGGACCTATATTACTTATTTTAGGACCTATATTGAATTCC
DNA 2: GGAATTCAATATAGGTCCTAAAATAAGTAATATAGGTCCTCAGATAACTAATATAGGTCCTAATATAAGTAAGCTTGGG
PfAlba3 [6]
  binding result: binds
PfAlba2 [7]
  binding result: binds

## AAAAAAAAAAAAAAAAAAAAAA (ssRNA) [polyA 22-mer]
PfAlba4 [8]
  binding result: binds
PfAlba2 [9]
  binding result: binds
PfAlba3 [10]
  binding result: binds
PfAlba1
  binding result: binds

B5: TARE6 fragment 42 bp (F1) (dsDNA)
DNA 1: CCCAAGCTTACTTATATTAGGACCTATATTAGTTATCTGAGG
DNA 2: CCTCAGATAACTAATATAGGTCCTAATATAAGTAAGCTTGGG
PfAlba4 [11]
  binding result: binds

— article PMC3326326
